Data taken from the DeepSol protein solubility set.

Test: soluble on expression in E. coli; label from the status in PepcDB or PDB records
For “MDEIAIDPSINQDMSASEIYRFEGTLYTLPFVTKNNDISWNKSRDEYKSECRTFPPLYKSLFDRQKCGKVRFSPPLSLEQNVNAHLKGSSSQHMTTILQGVEDAGYVFPDIDMLVTTEVLNTIAGSIFNQEKSWKLRAYVTQVQGKNMVIVCDDDFEHHQRISSTQSDFPIERTEALNFAHSICVRDGTRELNNSLHGSEVVVSTIKFREKSVKMIVIGEVDLVTGKNNKSLNTIVATGRTARASFGHNVESRVDSLDYLWSRCFWLGQRLCLVGMRSTEEAPVSSAYLYSLYPPTLKERKRTNYRVDVATTCVAQVMIRLREEAAKMPHANWIIEYTGRDKEFDPAFIKINVAPDTHSFLLVQEYWHIEKEAFESAEEQKKAEDQNVVEPEKIVRTFHQMKRLPGVRKSGTIAKQFQKIINSMSS”, the “soluble on expression in E. coli” value was “not soluble”.
In the case of “DITVYNGQHKEAATAVAKAFEQETGIKVTLNSGKSEQLAGQLKEEGDKTPADVFYTELTATFADLSEAGLLAPISEQTIQQTAQKGVPLAPKKDWIALSGRSRVVVYDHTKLSEKDMEKSVLDYATPKWKGKIGYVSTSGAFLEQVVALSKMKGDKVALNWLKGLKENGKLYAKNSVALQAVENGEVPAALINNYYWYNLAKEKGVENLKSRLYFVRHQDPGALVSYSGAAVLKASKNQAEAQKFVDFLASKKGQEALVAARAEYPLRADVVSPFNLEPYEKLEAPVVSATTAQDKEHAIKLIEEAGLK”, the “soluble on expression in E. coli” value is reported as “soluble”.
With “MIIEFLKKLLAGTPETVPAKETKRMTKVLVLYYSSYGHIETMAYAVAEGVESTGAEAVVKRVPELVPEEVAKSSHFKMDQPAPVATVDELAEYDAIIVGAGTRFGTVASQMRNFWDQTGGLWFSGKLVGKVGSAFTSSATQHGGQESTILGFIPTFLHHGMAVVGLPYAFQGQMGVDEIKGGSPYGASTITDGDGSRQPSAIELDAARYQGAHVAKLAAKLSA” the “soluble on expression in E. coli” value was “not soluble”.
With “MAHHHHHHSLITIETVLTILKNNANFREIIDGKHYQYKYSNPEVAFHHISYDSRDIKASTLFFVKGATFKKEFLEKAIESGLTFYVAEKDYQVGIPLILVNNIKNAMCLIAKEFYDNPQDKLKTLAFTGTKGKTTAAYFAYHILKQGYRPAMISTMNTTLDGKTFFKSKLTTPESLDLFKMMAQAVANGMTHLIMEVSSQAYLVGRVYGLTFDVGVFLNISPDHIGPIEHPTFEDYFYHKRLLLKHSRYVIVNSQMNHFALIKEQVADQPHDFYGKYSDNQIINSKAFSFDLTGKLAGHYDIQLTGSFNQENAVAAALACLQLGASQTDIQKGIVQTTVPGRMEVLIQKNGAKVFVDYAHNGDSLEKLLSVVEEHQKGTLILILGAPGNKGESRRADFGYVINAHPELQVILTADDPNNEDPQLISQEIAHHIKRPVNIIVDRKQAIQKAMSLTQSENDAVIIAGKGADAFQIIKGKRTAYAGDIEVARKYLEG” the “soluble on expression in E. coli” value was “soluble”.
In the case of “MGSDKIHHHHHHMGKKNYGKSVKTRLLNLMNETGYKYMYLLARYFNERLLYRVSVSQYKDNFLLKGGSLLYAMNGLEARPTVDVDFMADRISRDRDFLARVFQEILGIVCDEDGVSFDAGSIKIEPITVEKKYPGTRFYFTAHMDTIAYNMSVDIGFGDVVIPHPTTIDFPLLLPDIPSVNIQAYSLETVIAEKFHTMIDRDVLNSRMKDFFDCYQLLTKRNLNDDALYDAIEATFDNRGLAYNPDLQLFTDSFATDRARISRWKAFLRKIQWKEALDFDTVMKAIRDRLQPMAEKYWIKLSK”, the “soluble on expression in E. coli” value is reported as “not soluble”.
For “FLSTRDNVDELRKIENKSSFVSADNMPEYVKGAFISMEDERFYNHHGFDLKGTTRALFSTISDRDVQGGSTITQQVVKNYFYDNDRSFTRKVKELFVAHRVEKQYNKNEILSFYLNNIYFGDNQYTLEGAANHYFGTTVNKNSTTMSHITVLQSAILASKVNAPSVYNINN”, the “soluble on expression in E. coli” value was “not soluble”.
In the case of “MSLSEPILFVDDEQHVLNALQRVFSESGLETVFTRSPIEALELCRSKKFAVIVSDNMMPEMKGIELLTRIKEESPETVKCLLTAHADLDTALQAINSGEVFRFIVKPWRNEELYQAVSEGVARFRIWDALRQHDEGVLHSLAETIELKDHYTRGHCNRVADHALRICELLKLPSTTSREIRYGSWLHDCGKIGVPETILNSTCMLSEQEMIVVRKHPEWGANVAQQANLSPTLINIIRHHHERFDGTGYPFGLKGVSIPLEARIVAVADVFDALTTDRPYKPAMSFAKAHKLMGDMRGNHLEGRLVDMFFQTLDTEKTGSEGHHHHHH”, the “soluble on expression in E. coli” value is reported as “not soluble”.
With “MGHHHHHHSHMEDYSQEDWGNHSQDLHGYPTDQELDEIPVTKRTLKIKQESSEEAQKRDIMQNIVQILESVQLKWELFQSWTDFSRLHLSNKLAIFGIGYNTRWKEDIRYHYAEISSQVPLGKRLREYFNSEKPEGRIIMTRVQKMNWKNVYYKFLEITISEARCLELHMEIDWIPIAHSKPTGGNVVQYLLPGGIPKSPGLYAIGYEECIERPLSPHMEQSSLDPGKEGRVDLETLSAQASLQVEIEPTRIIYCYLGIAEVRTLQQCLFLHFQANTKTFSKDWVGINGFLSQNCIVDPGVSPKSIYIKFVEVERDFLSAGSLVECLEKAIGYPLKFNN” the “soluble on expression in E. coli” value was “not soluble”.
With “QSFWEEIAPPFISNEPNVKYIIPNMGIDSKGTIYVTVTKRIQQGANYTSEQLGMYYRPLGDNEQWWKHDPYFDDKIVADIQTDAYGRVYVCTTSSRDQEYQLYINEQNEWRCIFKTSVSTYEHGMAVFRSSTGVTYIGTRHHIFASGVNDFEFNTIYEDSTPMSCRFAEATNSGTIYLALMHETTMSTTILTYQNGEFVDISESELSNSIIASMCSNKEGD” the “soluble on expression in E. coli” value was “not soluble”.
With “MSTCTLRFKNDWLKIFTCPVPSSDFLSFVGVATIDAPQHAVLSLLYDIESATEWVWKTREMRVLQELADDNEGRVVYQVVSAPWPVSDREIISRSTAYKDPETGEVFIKIESLPDFIPETSNCVRVRKLEGAWNILPLSENSCRVVFRLHIEPAGEIPSWLANIAVIDTPYHTLNNMRDMVKREKYKNPLEHHHHHH” the “soluble on expression in E. coli” value was “not soluble”.
With “MLDLNRKLAKLEEEGKKIKVALIGAGHMGNGMVSQMANMKGIEASIVVDINLELAHKAFTDAGIDEEIIDNVTNEKDAEIKLQEGKVLTCNDFLVACKTKSIDVVIDATGGIAIGAEIALNSILNKKHIVMLNAETDCVVGPILKKLADDAGVIFTGSAGDEPGAVMELFDFADAMGFEVRVIGKGKNNKLDLDCNPDTVREEAERKGASPHMIASFKEGTKTMVEMALMCNATGFVPDVRGGHGIEATVNEVPKKYALKSEGGVLDNYGVVDFVNGIAPGVFVVVAHKLKAVNDELKYLSMGDGPNYILYRPYHLCSLETPLSAAMAVLDHKATIVPKAGLVAEVMTIAKKDLKKGEFMDGYGAYTCYGTIEKYDVAKAMNAVPIGLISKKTKVVKDIKKGEVITYDMVEIEKDTTLYHLRQLQEKIFG” the “soluble on expression in E. coli” value was “not soluble”.
For “MALTCTDMSDAVAGSDAEGLTADAIVVGAGLAGLVAACELADRGLRVLILDQENRANVGGQAFWSFGGLFLVNSPEQRRLGIRDSHELALQDWLGTAAFDRPEDYWPEQWAHAYVDFAAGEKRSWLRARGLKIFRWWAGPSVVVTTRRGTATRCPVSTSPGVLGRLWSTYSCVSCVIAPRCALRTATRSTNLEHHHHHH”, the “soluble on expression in E. coli” value was “not soluble”.
In the case of “GSHMASMTGGQQMGRGSENLYFQGNPILAGLGFSLPKRQVSNHDLVGRINTSDEFIVERTGVRTRYHVEPEQAVSALMVPAARQAIEAAGLLPEDIDLLLVNTLSPDHHDPSQACLIQPLLGLRHIPVLDIRAQCSGLLYGLQMARGQILAGLARHVLVVCGEVLSKRMDCSDRGRNLSILLGDGAGAVVVSAGESLEDGLLDLRLGADGNYFDLLMTAAPGSASPTFLDENVLREGGGEFLMRGRPMFEHASQTLVRIAGEMLAAHELTLDDIDHVICHQPNLRILDAVQEQLGIPQHKFAVTVDRLGNMASASTPVTLAMFWPDIQPGQRVLVLTYGSGATWGAALYRKPEEVNRPC”, the “soluble on expression in E. coli” value is reported as “soluble”.
For “MGSDKIHHHHHHMNFFEIVNAHLSELSPNEQKLFDYVVTNMGQIKNQSIREVASATFVSTATFLRFVKKIGFSGFSEFTTVIKFTLINRQEAERTTPFVVQQKDYREEYLKNIGESIRVIQPDHLRQVVDRLAQHPDVFFFAKGVSKHAVAYIDYLYTMAGFKTHFPRDHDYRKQALTQVDNDALVFILTYKGSDGEMLDMMSQLVGRPVRPLLVSITEPDNNTIQNLSDINFYIFTDGVTVNGTDISSRISTISVMELILYQYVEDYGGRDFHFQRQLES”, the “soluble on expression in E. coli” value was “not soluble”.
With “MSKKPTSAYVHIPFCTQICYYCDFSKVFIKNQPVDAYLEALIKEFNDYYQIKDLQTLYIGGGTPTAISGEQLDYLLTNLSKNLNLNMLEEFTIEANPGDLTPDKVAVLKQSAVNRVSLGVQTFNNKHLKQIGRGHNEAQIYESIDSLKSAGFDNISIDLIYALPNQTITDVKENVAKALALDIPHLSLYNLILEHHTVFMNKMRRGKLNLPAEDLEAEMFDYIISEMEDHGFEHYEISNFTKPGFESRHNLMYWNNAEYFGCGAGASGYVDGIRYRNRGPIQHYLKAIKEKRQARFQEERLSQSEKMEEELFLGLRKKSGISIQRFEDKFGLPLMEVYGQAIDDLEKDGLILVEKDCIRMSKKGLFLGDTVAEKFILEQK” the “soluble on expression in E. coli” value was “not soluble”.
For “MEKLIAIQQNTIKQETVQTMSSREIAELCGKRHGHVMRDIRKLFSELKIDLSNFAGLYKDSTGRTLPCYHLPKREALIVILGYNTVLRAKIIDYWKKLEEQAANPQIDFSSPEIRAAIMMHLKNKIKQTA”, the “soluble on expression in E. coli” value was “soluble”.
In the case of “MSLELMEEVDRTVHHMQDEAANFPDPADRASQEEEFSLELRARDRERKLIKKIDETLQLIEDEEYGWCDSCGVEIGIRRLEEGHHHHHH”, the “soluble on expression in E. coli” value is reported as “not soluble”.
